According to patent US7943356B2, “Alcohol dehydrogenase for the stereoselective production of hydroxy compounds” (Codexis, Inc., priority 2004, dated 2011):
Where two headings read alike, the source gives them in different places.

Columns and labels:
[1] = tested on: ADH T; assay: Relative activities of purified ADH T in the reduction of different substrates; assay type: biochemical, Thermoanaerobacter species
[2] = Storage stability of the isolated ADH T (residual activity); assay type: physicochemical; details: for Activity Day 5 / Activity Day 10 / Activity Day 20 / Activity Day 40 / Activity Start: storage at 4° C.
Method: In spite of its thermal stability, the isolated ADH T cannot be stored for long under standard conditions (50 mM Tris-Cl, pH 7.0). The half-life is only ca. 4 days. By addition of e.g. NaCl, the half-life can be increased to more than 40 days (Table 2).
(§1) The activities were determined by photometric measurement of the decrease in the cofactor. Measurement batch: 50 mM Tris-Cl, pH 7.0 with 10 mM substrate and 0.2 mM NADPH. The measurement batch for ADH-TE also contained 1 mM of MgCl2.
(§2) The decrease in NADPH was followed at 340 nm for one minute after addition of the enzyme. Sufficient enzyme was added for the activity to be between 0.5 and 1.5 U/ml and the measurement volume was 1 ml.
(§3) 1 U corresponds to the quantity of enzyme which converts 1 μmol of substrate per minute.

[3] = Activity of the isolated ADH T at different pH values; assay type: biochemical
Method: The activities were determined by photometric measurement of the decrease in the cofactor. […] The measurement batch for ADH-TE also contained 1 mM of MgCl2.
as §2, §3

[4] = Thermal stability of ADH T; assay type: physicochemical; details: after 12 hrs at 50° C.
Method: The thermal stability is also very good. The activity of the ADH T was still at 75% of the starting value even after 12 hrs at 50° C.

[5] = Activity with standard substrate acetone (photometric NADPH decrease); assay type: biochemical; details: acetone (10 mM); ADH T 1.5 mg/ml, ADH-TE 2.45 mg/ml; ADH-TE batch also 1 mM MgCl2
Method: (§4) The comparison of the activity of the ADH T with that of the secondary alcohol dehydrogenase from Thermoanaerobacter ethanolicus 39E (U.S. Pat. No. 5,908,924) with regard to the conversion of diketones is interesting (Table 6).
as §1, §2, §3

[6] = Activity with diketone 2,4-pentanedione (photometric NADPH decrease); assay type: biochemical
Method: as §4, §1, §2, §3

[7] = Activity with diketone 2,5-hexanedione (photometric NADPH decrease); assay type: biochemical
Method: as §4, §1, §2, §3

[8] = Reduction of 2,5-hexanedione to the diol, conversion and ee/de; assay type: biochemical; details: after 48 hrs
Text: The ee/de value of 100% signifies absolute enantiomeric and diastereomeric purity of the diols prepared. By means of the invention described here, the ADH T can for the first time be obtained in sufficient quantity to produce enantiomerically pure diols on the kilogram scale.

[9] = Conversion of 2-pentanone with substrate-coupled cofactor regeneration (isopropanol); assay type: biochemical; details: 200 mM 2-pentanone, 3 U/ml ADH T, 0.05 mM NADP
Text: In fact, it can be shown that the enantioselectivity in the reduction of critical ketones such as 2-pentanone or 2-butanone by substrate-coupled cofactor regeneration with isopropanol is also far better than with the use of enzyme-coupled cofactor regeneration.
Also, the achievable enantiomeric purity of the product depends on the quantity of isopropanol used (Table 9).

[10] = substrate 10 mM, activity with acetone set at 100%, […]
[11] = substrate 10 mM, activity with acetone set at 100%, purified ADH T
[12] = relative to standard substrate acetone (10 mM)

`CC(=O)c1ccc(Cl)cc1` [p-chloroacetophenone] showed a Relative activity [1, 10] of 17%.

In the case of `CC(=O)CCCl` [4-chloro-2-butanone], the Relative activity [1, 10] is reported as 66%.

Molecule `CCCC(C)=O` [2-pentanone] has a Relative activity [1, 11] of 31%.

`CC(=O)C(C)=O` [Diacetyl] showed a Relative activity [1, 11] of 154%.

Molecule `CC(=O)c1ccccn1` [2-acetylpyridine] has a Relative activity [1, 11] of 36%.

`CCCCCC(=O)CC` [3-octanone] gave a Relative activity [1, 11] of 26%.

`CC=O` [Acetaldehyde] showed a Relative activity [1, 10] of 101%.

Work on `CC(=O)c1ccccc1` [Acetophenone] yielded a Relative activity [1, 11] of 28%.

`CC(C)=O` [Acetone] gave a Relative activity [1, 10] of 100%.

Molecule `CCC(C)C=O` (stereo not shown) [2-methylbutyraldehyde] has a Relative activity [1, 11] of 52%.

`C#CC(C)=O` [3-butyn-2-one] gave a Relative activity [1, 10] of 76%.

For `O=C(CCl)c1ccccc1` [Phenacyl chloride], the Relative activity [1, 10] was 25%.

Monochloroacetone showed a Relative activity [1] of 71%.

Work on `CCCCCCC(C)=O` [2-octanone] yielded a Relative activity [1, 11] of 9%.

With `CCOC(=O)CC(=O)CCl` [Ethyl 4-chloroacetoacetate] the Relative activity [1, 10] was 45%.

In the case of `CC(=O)CCC(C)=O` [2,5-hexanedione], the Relative activity [1, 11] is reported as 74%.

With `CCC(C)=O` [2-butanone] the Relative activity [1, 10] was 72%.

`CC(=O)CC(C)=O` [2,4-pentanedione] showed a Relative activity [1, 11] of 77%.

With `CCCCC(C)=O` [2-hexanone] the Relative activity [1, 10] was 30%.

`O=C1CCCCC1=O` [1,2-cyclohexanedione] gave a Relative activity [1, 11] of 5%.

`CC(=O)CCO` [4-hydroxy-2-butanone] gave a Relative activity [1, 10] of 13%.

Molecule `CCOC(=O)CC(C)=O` [Ethyl acetoacetate] has a Relative activity [1, 11] of 22%.

For `CCC(=O)C(=O)O` [2-oxobutyric acid], the Relative activity [1, 11] was 28%.

B1: ADH T: thermally stable, (S)-selective NADP-dependent alcohol dehydrogenase from Thermoanaerobacter species (SEQ ID NO: 2), recombinant (protein)
chain: MKGFAMLSIGKVGWIEVEKPNPGPFDAIVRPLAVAPCSSDIHTVFEGGLGELHNAVLGHEAVGEVVEVGSEVKDFKPGDKVVIPAITPDWRTLDVQRGYHQQSGGMLAGYKFTAQKPGVFAEYIYVNDADMNLAHLPDGISLEAAVMITDMMTTGFHGAELAEIELGATVAVLGIGPVGLMAVAGAKLRGAGRIIAVGSRPVCVDAAKYYGATDIVNYKNGPIDSQIMDLTKGKGVDAAIIAGGNVDIMATAVKIVKPGGTIANVNYFGEGDVLPVPRLEWGCGMAHKAIKGGLCPGGRLRMERLIDLVFYKRVDPSKLVTHVFQGFDNIEKALMLMKDKPKDLIKPVVILA
modifications: Thermoanaerobacter species
With B1 the “Activity Day 5” value ([2]; 0.0 M NaCl) was 24 U/ml, the “Activity Day 10” value ([2]; 0.0 M NaCl) was 6 U/ml and the “Activity Day 20” value ([2]; 0.0 M NaCl) was 0 U/ml. The “Activity Day 40” value ([2]; 0.0 M NaCl) was 0 U/ml, the “Activity Start” value ([2]; 0.0 M NaCl) was 105 U/ml and the “Activity Day 5” value ([2]; 0.2 M NaCl) was 101 U/ml. The “Activity Day 10” value ([2]; 0.2 M NaCl) was 7 U/ml, the “Activity Day 20” value ([2]; 0.2 M NaCl) was 0 U/ml and the “Activity Day 40” value ([2]; 0.2 M NaCl) was 0 U/ml. For the same molecule, the “Activity Start” value ([2]; 0.2 M NaCl) was 105 U/ml, the “Activity Day 5” value ([2]; 0.5 M NaCl) was 113 U/ml and the “Activity Day 10” value ([2]; 0.5 M NaCl) was 86 U/ml. For the same molecule, the “Activity Day 20” value ([2]; 0.5 M NaCl) was 0 U/ml, the “Activity Day 40” value ([2]; 0.5 M NaCl) was 0 U/ml and the “Activity Start” value ([2]; 0.5 M NaCl) was 105 U/ml. For the same molecule, the “Activity Day 5” value ([2]; 1.0 M NaCl) was 115 U/ml, the “Activity Day 10” value ([2]; 1.0 M NaCl) was 119 U/ml and the “Activity Day 40” value ([2]; 1.0 M NaCl) was 78 U/ml. The “Activity Start” value ([2]; 1.0 M NaCl) was 105 U/ml, the “duration of high stability on storage” value ([2]; storage at −20° C. with addition of glycerine, in particular 50%) was “at least 3 months” and the “effect of addition of zinc ions to the prepared enzyme” value ([2]; zinc ions added to prepared enzyme) was “leads rapidly to its inactivation”. For the same molecule, the pH optimum [3] was 7.0, the Measured activity ([3]; pH 5.0) was 53 U/ml and the Measured activity ([3]; pH 6.0) was 134 U/ml. It also gave a Relative activity ([3]; pH 6.5) of 66%, a Measured activity ([3]; pH 7.0) of 192 U/ml and a Relative activity ([3]; pH 7.0) of 100%. For the same molecule, the Relative activity ([3]; pH 7.5) was 74%, the Measured activity ([3]; pH 8.0) was 146 U/ml and the Measured activity ([3]; pH 9.0) was 13 U/ml. The “activity remaining, of the starting value” [4] was 75%, the “activity with standard substrate” value [5] was 106 U/ml and the spec. activity [6] was 55.4 U/mg. For the same molecule, the rel. activity [6, 12] was 77%, the spec. activity [7] was 52.7 U/mg and the rel. activity [7, 12] was 74%. The Conversion to diol ([8]; enzyme-coupled) was 82.4%, the “ee/de for the (S,S) enantiomer” value ([8]; enzyme-coupled) was 100% and the Conversion to diol ([8]; substrate-coupled) was 10.6%. The “ee/de for the (S,S) enantiomer” value ([8]; substrate-coupled) was 100%, the Conversion ([9]; 100 mM Tris-Cl pH 7.0, 20% isopropanol, 24 hours) was 85.3% and the Conversion ([9]; 100 mM Tris-Cl pH 7.0, 20% isopropanol, 48 hours) was 86.5%. It also gave a Conversion ([9]; 100 mM Tris-Cl pH 7.0, 50% isopropanol, 24 hours) of 93.8% and a Conversion ([9]; 100 mM Tris-Cl pH 7.0, 50% isopropanol, 48 hours) of 94.2%.
